Results as given in PMC12421377, “Molecular basis for the recognition of low-frequency polyadenylation signals by mPSF”.

What was measured:
Details in all cases: protein: recombinant; copies: 1;1;1;1
[1] = biological target: T1, mPSF (CPSF160-WDR33-CPSF30-Fip1) (human, UniProt Q10570;Q9C0J8;O95639-2;Q6UN15 1-1443;1-572;1-244;1-594); experiment: competition fluorescence anisotropy; vs FAM-AAUAAA; 20 mM Tris pH 8.0, 150 mM NaCl, 10 mM DTT, 100 nM BSA, 0.01% NP-40; 45 min on ice, read at room temperature; triplicates
T1 sequence (Q10570 whole entry, chain 1 of 4): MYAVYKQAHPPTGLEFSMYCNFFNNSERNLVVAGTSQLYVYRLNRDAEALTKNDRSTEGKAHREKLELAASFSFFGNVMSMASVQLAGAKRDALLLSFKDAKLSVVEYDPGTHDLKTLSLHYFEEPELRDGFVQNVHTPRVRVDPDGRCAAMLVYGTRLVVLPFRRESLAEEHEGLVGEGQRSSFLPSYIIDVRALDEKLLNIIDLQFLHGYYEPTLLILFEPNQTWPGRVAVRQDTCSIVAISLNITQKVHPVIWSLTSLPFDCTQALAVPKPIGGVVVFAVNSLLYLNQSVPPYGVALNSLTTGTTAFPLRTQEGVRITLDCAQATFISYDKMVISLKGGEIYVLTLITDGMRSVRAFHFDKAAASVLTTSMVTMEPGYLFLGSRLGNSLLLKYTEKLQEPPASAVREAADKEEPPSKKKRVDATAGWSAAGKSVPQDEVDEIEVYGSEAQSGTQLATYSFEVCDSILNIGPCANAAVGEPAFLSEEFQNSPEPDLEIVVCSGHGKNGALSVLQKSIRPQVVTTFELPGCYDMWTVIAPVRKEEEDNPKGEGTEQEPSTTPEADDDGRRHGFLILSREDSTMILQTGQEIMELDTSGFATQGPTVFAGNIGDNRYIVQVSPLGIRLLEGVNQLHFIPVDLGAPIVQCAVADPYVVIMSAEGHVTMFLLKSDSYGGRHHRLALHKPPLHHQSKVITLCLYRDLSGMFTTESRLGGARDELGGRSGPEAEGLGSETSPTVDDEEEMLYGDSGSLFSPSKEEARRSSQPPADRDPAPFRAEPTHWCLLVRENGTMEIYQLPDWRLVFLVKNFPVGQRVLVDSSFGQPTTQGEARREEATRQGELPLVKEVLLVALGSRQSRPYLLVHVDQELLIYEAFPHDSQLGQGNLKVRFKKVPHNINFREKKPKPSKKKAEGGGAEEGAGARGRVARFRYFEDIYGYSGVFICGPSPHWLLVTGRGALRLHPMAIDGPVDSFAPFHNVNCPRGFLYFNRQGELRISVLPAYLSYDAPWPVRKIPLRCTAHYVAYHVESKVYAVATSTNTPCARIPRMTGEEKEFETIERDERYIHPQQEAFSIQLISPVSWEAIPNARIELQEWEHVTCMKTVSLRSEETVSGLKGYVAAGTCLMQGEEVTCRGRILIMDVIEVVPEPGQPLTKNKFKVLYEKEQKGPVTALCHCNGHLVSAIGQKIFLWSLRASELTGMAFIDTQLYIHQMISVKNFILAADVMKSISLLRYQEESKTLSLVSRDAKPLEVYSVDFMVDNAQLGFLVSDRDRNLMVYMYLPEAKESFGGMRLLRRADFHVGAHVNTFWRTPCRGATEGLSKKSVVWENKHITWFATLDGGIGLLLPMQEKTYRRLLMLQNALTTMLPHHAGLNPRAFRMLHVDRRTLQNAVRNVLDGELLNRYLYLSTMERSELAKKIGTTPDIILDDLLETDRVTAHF
T1 sequence (Q9C0J8 1-572, chain 2 of 4): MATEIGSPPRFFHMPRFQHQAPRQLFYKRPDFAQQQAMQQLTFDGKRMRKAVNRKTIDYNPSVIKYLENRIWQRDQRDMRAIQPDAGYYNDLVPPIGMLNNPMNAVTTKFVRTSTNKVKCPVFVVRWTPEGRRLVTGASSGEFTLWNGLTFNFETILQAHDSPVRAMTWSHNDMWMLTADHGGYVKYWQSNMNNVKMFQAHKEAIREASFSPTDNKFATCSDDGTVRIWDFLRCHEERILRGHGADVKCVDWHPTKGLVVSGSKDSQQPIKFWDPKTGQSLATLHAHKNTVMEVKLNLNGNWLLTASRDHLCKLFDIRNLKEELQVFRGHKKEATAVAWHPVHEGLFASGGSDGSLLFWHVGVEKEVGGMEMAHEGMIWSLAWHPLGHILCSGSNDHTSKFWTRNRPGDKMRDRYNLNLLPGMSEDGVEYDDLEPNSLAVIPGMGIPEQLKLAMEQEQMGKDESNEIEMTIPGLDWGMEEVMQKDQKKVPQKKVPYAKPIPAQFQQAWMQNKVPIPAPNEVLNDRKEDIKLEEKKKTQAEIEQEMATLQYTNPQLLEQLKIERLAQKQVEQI
T1 sequence (O95639 other isoform, or with tags, fused parts or gaps, chain 3 of 4): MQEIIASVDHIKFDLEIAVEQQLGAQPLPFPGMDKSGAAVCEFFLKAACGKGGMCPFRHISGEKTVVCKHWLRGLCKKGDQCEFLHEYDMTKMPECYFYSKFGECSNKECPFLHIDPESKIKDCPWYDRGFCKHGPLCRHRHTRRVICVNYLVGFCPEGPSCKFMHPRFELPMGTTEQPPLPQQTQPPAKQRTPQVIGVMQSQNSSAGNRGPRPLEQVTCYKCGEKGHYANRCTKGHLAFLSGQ
T1 sequence (Q6UN15 whole entry, chain 4 of 4): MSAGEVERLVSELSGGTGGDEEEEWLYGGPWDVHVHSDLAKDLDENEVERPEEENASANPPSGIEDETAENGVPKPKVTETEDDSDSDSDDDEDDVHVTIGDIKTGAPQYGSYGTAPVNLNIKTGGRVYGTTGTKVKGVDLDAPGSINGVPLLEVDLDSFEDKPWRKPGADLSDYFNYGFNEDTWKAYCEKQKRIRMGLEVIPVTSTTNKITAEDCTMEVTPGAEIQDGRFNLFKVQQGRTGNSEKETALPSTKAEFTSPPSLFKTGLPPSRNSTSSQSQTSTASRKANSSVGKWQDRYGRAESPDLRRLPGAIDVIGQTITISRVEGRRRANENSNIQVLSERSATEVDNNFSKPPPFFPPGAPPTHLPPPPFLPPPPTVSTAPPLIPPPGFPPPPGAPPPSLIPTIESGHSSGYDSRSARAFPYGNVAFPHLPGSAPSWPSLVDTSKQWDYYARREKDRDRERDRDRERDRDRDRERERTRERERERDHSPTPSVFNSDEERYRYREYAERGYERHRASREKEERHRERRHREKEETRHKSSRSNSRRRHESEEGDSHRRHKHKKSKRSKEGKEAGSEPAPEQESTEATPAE

[2] = biological target: T1, mPSF (CPSF160-WDR33-CPSF30-Fip1); experiment: cryo-EM structure (3.1 A); RNA up to 40 uM, mPSF 1.4 uM; 20 mM Tris pH 8.0, 150 mM NaCl, 10 mM DTT, 100 nM BSA, 0.01% NP-40; 45 min on ice, read at room temperature; triplicates
[3] = biological target: T1, mPSF (CPSF160-WDR33-CPSF30-Fip1); experiment: competition fluorescence anisotropy; vs 3 nM FAM-AAUAAA, 30 nM mPSF; 20 mM Tris pH 8.0, 150 mM NaCl, 10 mM DTT, 100 nM BSA, 0.01% NP-40; 45 min on ice, read at room temperature; triplicates
[4] = biological target: T1, mPSF (CPSF160-WDR33-CPSF30-Fip1); experiment: cryo-EM structure (2.5 A); RNA up to 40 uM, mPSF 1.4 uM; 20 mM Tris pH 8.0, 150 mM NaCl, 10 mM DTT, 100 nM BSA, 0.01% NP-40; 45 min on ice, read at room temperature; triplicates

Row | Binder | Kd [1] | also measured
1 | UGCAAGAAACAA (ssRNA) [AAGAAA 12-mer] | 1.87 µM | 
2 | UGCAAUAAUCAA (ssRNA) [AAUAAU 12-mer] |  | binding result [2]: binds
3 | UGCUAUAAACAA (ssRNA) [CUAUAAA-context UAUAAA 12-mer] | 0.52 µM | 
4 | UGCAAUAGACAA (ssRNA) [AAUAGA 12-mer] | 2 µM | 
5 | UGCGAUAAACAA (ssRNA) [GAUAAA 12-mer] | 0.58 µM | 
6 | UGCCAUAAACAA (ssRNA) [CAUAAA 12-mer] | 0.78 µM | 
7 | UGCAACAAACAA (ssRNA) [AACAAA 12-mer] | 13 µM | 
8 | UGCAUUAUACAA (ssRNA) [AUUAUA 12-mer] | 2.14 µM | 
9 | UGCAAUAUACAA (ssRNA) [AAUAUA 12-mer] | 2.5 µM | 
10 | UGCAUUAAACAA (ssRNA) [AUUAAA 12-mer] | 0.079 µM | 
11 | UGCAAUAAACAA (ssRNA) [AAUAAA 12-mer] |  | Kd [3]: 0.04 µM
12 | UGCAAUAAGCAA (ssRNA) [AAUAAG 12-mer] | 11.5 µM | 
13 | UGCAGUAAACAA (ssRNA) [AGUAAA 12-mer] |  | binding result [4]: binds
14 | UGCAAUGAACAA (ssRNA) [AAUGAA 12-mer] | 1.18 µM | 
15 | UGCACUAAACAA (ssRNA) [ACUAAA 12-mer] | 2.7 µM | 
16 | UGCAAUACACAA (ssRNA) [AAUACA 12-mer] | 2.2 µM | 
